Assay [1] deals with T1, TROP2 expressed on human cancer cell lines (human, UniProt P09758 27-323).
T1 sequence: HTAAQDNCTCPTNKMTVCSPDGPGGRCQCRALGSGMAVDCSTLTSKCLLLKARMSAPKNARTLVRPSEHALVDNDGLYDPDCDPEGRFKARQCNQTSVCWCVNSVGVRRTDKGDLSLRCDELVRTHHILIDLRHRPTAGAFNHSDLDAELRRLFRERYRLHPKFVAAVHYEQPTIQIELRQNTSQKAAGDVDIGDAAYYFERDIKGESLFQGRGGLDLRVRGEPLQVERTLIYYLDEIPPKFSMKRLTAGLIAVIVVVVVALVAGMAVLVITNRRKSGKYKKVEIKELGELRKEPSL
The assay is described as follows: cell-based or functional assay.

The target of assay [2] is T2, human Trophoblast cell surface antigen 2 (TROP2) (human, UniProt P09758 27-274, limits assumed).
T2 construct: Analyte in the SPR experiments and immunogen; also called human TROP2
T2 sequence: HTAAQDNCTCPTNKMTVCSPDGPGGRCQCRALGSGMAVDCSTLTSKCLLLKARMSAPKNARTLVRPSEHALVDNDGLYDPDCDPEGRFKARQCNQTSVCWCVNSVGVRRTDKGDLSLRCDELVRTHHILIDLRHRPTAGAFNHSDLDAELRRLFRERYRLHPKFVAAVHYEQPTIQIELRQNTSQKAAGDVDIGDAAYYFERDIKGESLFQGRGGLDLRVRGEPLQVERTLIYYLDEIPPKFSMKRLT
The assay is described as follows: SPR affinity ranking, human TROP2.

Assay [3] concerns the target T2, human Trophoblast cell surface antigen …. The assay is described as follows: SPR, TROP2 as analyte. (Surface plasmon resonance follows binding to a sensor surface in real time, without labels.)
For assay [4], the target named is T1, TROP2 expressed on human cancer cell …. The assay is described as follows: cell-based or functional assay. The source holds these as a separate data set.
The target of assay [5] is human Trophoblast cell surface antigen 2 (TROP2) (human) (UniProt P09758). Nature of the assay: SPR, TROP2 as analyte.
Assay [6] has as its target T1, TROP2 expressed on human cancer cell …. The assay is described as follows: flow cytometry of SKBR3 cells after overnight incubation with the antibody pre-mixed with pHAb-labelled secondary antibody (internalization assay); x axis pHAb-A, y axis Count. Here is the method: FACS experiments were performed to verify that antibodies 1B3, 15D9, 15A10, 17B6, and 17D1 were internalized by SKBR3 cells. SKBR3 is a TROP2-expressing human breast carcinoma cell line. Briefly, 1.2×10⁵ SKBR3 cells were seeded into each 12-well plates and cultured overnight. 300 μL of 20 nM control antibody, 1B3, 15D9, 15A10, 17B6, or 17D1 (in DMEM-10) were mixed with 300 μL 60 nM pHAb-labelled secondary antibody for 15 minutes at room temperature in the dark. The labeled antibodies mixtures were added to the SKBR3 cells and incubated overnight. Following overnight incubation, the SKBR3 cells were trypsinized, washed twice with 1% BSA/PBS, and analyzed via flow cytometry.
Background: Flow cytometry measures light scatter and fluorescence of single cells or particles in a stream.

Residue numbers refer to the chain shown, from its start.

B1: HC4/LC5 (antibody, human IgG1, kappa, V domains shown)
VH: QVQLVQSGAEVKKPGSSVKVSCKASGYTFTDYSINWVRQAPGQGLEWMGVISTYYGDASYNQKFKGRVTITADESTSTAYMELSSLRSEDTAVYYCARYGDGYNQFDYWGQGTLVTVSS
VL: DIQMTQSPSSLSASVGDRVTITCRVSESVDSYGNNFMHWYQQKPGKAPKLLIYRASNLESGVPSRFSGSGSGTDFTFTISSLQPEDIATYYCQQSYEDPYTFGGGTKLEIKR
notes: Humanized anti-TROP2 antibody; also called DP002-HC4LC5; DP002HC4LC5
In the case of B1, in assay [1], the “IC50 (nM), in vitro cytotoxicity, BxPC-3 cells” value was above 100 nM; the “IC50 (nM), in vitro cytotoxicity, HCC1954 cells” value was above 100 nM; the “IC50 (nM), in vitro cytotoxicity, NCI-N87 cells” value was above 100 nM. Further, in assay [2], the Kd (usually the free concentration of one partner at which half of the binding sites on the other are occupied at equilibrium, for simple one-to-one binding) is 80.1 pM; the koff (as a rule, the rate constant with which the complex falls apart) is 0.000138 s⁻¹; the kon (in general, the rate constant with which the complex forms) stood at 1.72e+06 M⁻¹ s⁻¹. In assay [3], this molecule returned a Kd of 18.4 pM, a koff of 4.05e-05 s⁻¹ and a kon of 2.2e+06 M⁻¹ s⁻¹.

B2: HC1/LC1 (antibody, human IgG1, kappa, V domains shown)
VH: B1 VH with S16A, I70M, A72T, E74T, S84R, E89D, L114M
VL: DIVMTQSPDSLAVSLGERATINCRVSESVDSYGNNFMHWYQQKPGQPPKLLIYRASNLESGVPDRFSGSGSGTDFTLTISSLQAEDVAVYYCQQSYEDPYTFGQGTKLEIKR
notes: Humanized anti-TROP2 antibody; also called DP002-HC1LC1
In assay [2], B2 gave a Kd of 64.5 pM, a koff of 0.000105 s⁻¹ and a kon of 1.63e+06 M⁻¹ s⁻¹. In assay [4], the “IC50 (nM), in vitro cytotoxicity, HCC38 cells” value is above 100 nM and the “IC50 (nM), in vitro cytotoxicity, MDA-MB-468 cells” value was above 100 nM. In assay [3], this molecule had a Kd of 66.2 pM, a koff of 0.00013 s⁻¹ and a kon of 1.97e+06 M⁻¹ s⁻¹.

B3: biosimilar of the anti-TROP2 antibody sacituzumab (antibody, INN chains, looked up, V domains shown)
VH: QVQLQQSGSELKKPGASVKVSCKASGYTFTNYGMNWVKQAPGQGLKWMGWINTYTGEPTYTDDFKGRFAFSLDTSVSTAYLQISSLKADDTAVYFCARGGFGSSYWYFDVWGQGSLVTVSS
VL: DIQLTQSPSSLSASVGDRVSITCKASQDVSIAVAWYQQKPGKAPKLLIYSASYRYTGVPDRFSGSGSGTDFTLTISSLQPEDFAVYYCQQHYITPLTFGAGTKVEIKR
modifications: biosimilar
In assay [5], B3 displayed a Kd of 400 pM, a koff of 0.000204 s⁻¹ and a kon of 511000 M⁻¹ s⁻¹.

B4: anti-TROP2 antibody 1B3 (antibody, V domains shown)
VH: QVQLQQSGAELVRPGVSVKISCKGSGYTFTDYSINWVKQSHAKSLEWIGVISTYYGDASYNQKFKGKATMTVDKSSSTAYMELARLTSEDSAIYYCARYGDGYNQFDYWGQGTTLTVSS
VL: DIVLTQSPASLAVSLGQRATISCRVSESVDSYGNNFMHWYQQKPGQPPKLLIYRASNLESGVPARFSGSGSGTDFTLTINPMEADDVATYYCQQSYEDPYTFGGGTKLEIK
notes: Mouse anti-human TROP2 hybridoma antibody
B4: in assay [6], the binding result is listed as “binds”.

B5: anti-TROP2 antibody 17B6 (antibody, V domains shown)
VH: QVQLQQSGAELVRPGVSVKISCKGSGYTFTDYGMNWVKQSHAKSLEWIGVISTFYGDANYNQKFKGKATMTVDKSSSTAYMELARLTSEDSAIYYCARRGNYDSMDYWGQGTSVTVSS
VL: B4 VL with A9V, S10F, V25A, N35S, V62I, G72R, M82V, A88E, Y100P, K111E
notes: as for B4
Take B5: the binding result in assay [6] was “binds”.

B6: anti-TROP2 antibody 15A10 (antibody, V domains shown)
VH: EVQLEQSGPGLVQPSQSLSITCTVSGFSLTRYGVHWVRQSPGRSLEWLGVIWSGGNTDYNAAFISRLTITKDNSKSQVFFKMNSLQPNDTGVYYCAREDRYVGEFAYWGQGTLVTVSA
VL: B4 VL with P8T, V25A, N35S, M37I, V62I, G72R, M82V, Y96N, Y100R
notes: as for B4
Take B6: the binding result in assay [6] was “binds”.

B7: anti-TROP2 antibody 15D9 (antibody, V domains shown)
VH: QVQLQQSGAELVRPGVSVKISCKGSGYTFTDYSIHWVKQSHAKSLEWIGVISSYYGDATYNQKFKGKATMTVDKSSSTAYMELARLTSEDSAIYYCALLGAYNYFDYWGQGTTLTVSS
VL: B4 VL with V25A, N35S, I52V, V62I, G72R, M82V, Y100P
notes: as for B4
Take B7: the binding result in assay [6] is given as “binds”.

B8: anti-TROP2 antibody 17D1 (antibody, V domains shown)
VH: B7 VH with V50L, S53T, N61T
VL: B4 VL with V25A, N35S, I52V, V62I, G72R, M82V, V87I, Y100P
notes: as for B4
B8: the binding result in assay [6] is “binds”.
